How the values were obtained:
[1] = target: activin; assay: cell-based or functional assay
[2] = target: growth/differentiation factor-8 (GDF-8) (UniProt O14793); assay: cell-based or functional assay
Chain of UniProt O14793 (O14793 267-375 limits assumed): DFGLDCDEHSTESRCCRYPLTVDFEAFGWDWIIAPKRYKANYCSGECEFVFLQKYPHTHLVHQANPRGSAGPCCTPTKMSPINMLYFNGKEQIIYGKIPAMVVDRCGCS

inhibition of elevation in standardized luciferase activity due to activin ((CAGA)12-MLP-Luc reporter assay, HEK293 cells) [1]: 100%
inhibition of elevation in standardized luciferase activity due to GDF-8 ((CAGA)12-MLP-Luc reporter assay, HEK293 cells) [2]: 100%
Substance: follistatin

Source: patent publication US20080090755A1
